Test results from patent US20120121633A1, “HIV CD4 BINDING SITE BASED COVALENT IMMUNOGEN COMPOSITIONS” (priority 2010, published 2012).
Positions count from the first letter of the chain named.

Columns and labels:
BSA-E-416-433 = BSA-E-416-433 (Human immunodeficiency virus type 1 group M subtype B, UniProt P04578, C418S/K429E); details: inhibited by gp120, Bt-E-416-433 and sCD4, not by Sh416-433 or ovalbumin
Procedure: FIG. 21. […] IgM 2G9 binding to BSA-E-416-433 (70 ng/well) was tested in the absence or presence of increasing concentrations of Bt-E-416-433, sCD4, gp120, control Sh416-433 and control ovalbumin (OVA). Y-axis values are computed as follows 100x[A490 with competitor/A490 without competitor]. Methods as in ref 2.

[1] = system: subtype C clinical HIV isolate ZA009 (97ZA009); assay: HIV neutralization, PBMC/clinical isolate assay, strain ZA009; assay type: cell-based; details: MAb clones from KLH-E-416-433 immunized mice
Source text: FIG. 12. […] A, 416-433 and 301-324 epitope sequences from the autologous subtype B strain of IgA donor 2866 and heterologous subtype C strain ZA009 used for neutralization assays. […] Host cells, PBMCs; virus isolate, R5-dependent subtype C strain ZA009. IC50, 50% neutralization concentration. Dashed lines, 95% confidence limits. […] Pooled IgA (I19-21 donors 2857, 2866 and 2886) was fractionated on agarose-conjugated as in FIG. 8. […] Host cells, PBMCs; virus, strain ZA009.
FIG. 19. […] Abs were fractionated by affinity chromatography on agarose-conjugated E-416-433. Plotted are the neutralization potencies (IC50) expressed per unit mass Ab content (sum of IgM, IgG and IgA measured by ELISA using class-specific Abs as in FIG. 8). IC50 computed from dose-response curves using the CCR5-dependent subtype C strain 97ZA009. […] Noncovalently and covalently bound fractions were recovered, respectively, by pH 2.7 elution and 2-PAM elution.
Neutralization of clinical HIV isolates obtained from the NIH AIDS Reagent Repository is tested using phytohemagglutinin-activated human PBMCs pooled from 4-12 donors.^44 The virus is incubated with the test Ab sample in quadruplicate to ensure reliability. The reaction mixtures are added to PBMCs in 96-well plates. Infection is monitored using p24 enzyme-immunoassay kits. […] The stock HIV strain ZA009 is used to infect PBMC in the presence of the Ab. Infection proceeds overnight and cells are washed and resuspended in RPMI media containing the Ab. After 7 days the cell-free supernatant is harvested and used to infect a new aliquot of stimulated PBMCs (second passage). The virus is passaged 10 times with a gradual (2-fold) increase in Ab concentration with each passage. A virus aliquot is saved at each passage for sequencing.^112 Viral supernatants are titered at each passage using a fresh batch of PBMCs. The gp120 gene will sequenced following RT-PCR as described.^113

B1: 2G9: murine IgM MAb from KLH-E-416-433 immunization (antibody, V domains shown)
VH: QVQLKQSGPGLVQPSQSLSITCTVSGFSLTSYGVHWVRQSPGKGLEWLGVIWSGGSTDYNAAFISRLSISKDNSKSQVFFKMNSLQANDTAIYYCARNKDYGSSYDYYAMDYWGQGTSVTVSS
VL: DIQMTQTTSSLSASLGDRVTISCRASQDISNYLNWYQQKPDGTVKLLIYYTSRLHSGVPSRFSGSGSGTDYSLTISNLEQEDIATYFCQQGNTLPTFGGGTKLEIKRA
BSA-E-416-433
  specificity of binding shown by competitive inhibition: Specificity for 421-433 CD4BS sequence
[1]
  HIV neutralizing activity: neutralizing activity

B2: 4B2-F8: murine IgG MAb from KLH-E-416-433 immunization (antibody, V domains shown)
VH: QVQLQQSGAELVRPGASVKLSCMALGYTFTDYEIHWVKQTPVHGLEWIGGFHPGSGGGAYSQKFKGKATLIADKSSSIAYMEVISLTSEDSAVYYCTRFRYSSFAMVYWGQGTSVTVSS
VL: DIVMSQSPSSLAVSAGEKVTMSCKSSQSLLNSRTRKNYLAWYQQKPGQSPKLLIYWASTRESGVPDRFTGSGSGTDFTLTINSVQAEDLAVYYCKQSYNLWTFGGGTKLEIK
[1]
  HIV neutralizing activity: neutralizing activity

B3: 9F3-A7: murine IgG MAb from KLH-E-416-433 immunization (antibody, V domains shown)
VH: QVQLQQSGAELVRPGASVKLSCKALGYTFTDYEMHWVKQTPVHGLEWIGGIYPGSGGTAYNQKFKGKATLTADKSSSTAYMELSSLTSEDSAVYYCTKFRFSSFAMDYWGQGTSVTVSS
VL: B2 VL with S22R, N82S, S97F
[1]
  HIV neutralizing activity: neutralizing activity
